Reference: patent EP1828247B1

Target: West Nile virus strain USA99b (strain 385-99), whole virus (West Nile virus strain 385-99 (USA99b))
Assay: ELISA on irradiated WNV; antibody at 20.000 µg/ml

## anti-rabies virus antibody (negative control)
  OD 492nm: 0.051 OD 492nm
